Sequences and labels used below:
T1: soluble recombinant megalin M3 fragment (amino acids 2698 to 3192 of human LRP2/megalin, C-terminal 6x His … (human, UniProt P98164 2698-3192))
T1 construct: Expressed in HEK 293 cells and secreted, with the signal peptide removed; It tends to dimerise; also called E2698-R3192
T1 sequence: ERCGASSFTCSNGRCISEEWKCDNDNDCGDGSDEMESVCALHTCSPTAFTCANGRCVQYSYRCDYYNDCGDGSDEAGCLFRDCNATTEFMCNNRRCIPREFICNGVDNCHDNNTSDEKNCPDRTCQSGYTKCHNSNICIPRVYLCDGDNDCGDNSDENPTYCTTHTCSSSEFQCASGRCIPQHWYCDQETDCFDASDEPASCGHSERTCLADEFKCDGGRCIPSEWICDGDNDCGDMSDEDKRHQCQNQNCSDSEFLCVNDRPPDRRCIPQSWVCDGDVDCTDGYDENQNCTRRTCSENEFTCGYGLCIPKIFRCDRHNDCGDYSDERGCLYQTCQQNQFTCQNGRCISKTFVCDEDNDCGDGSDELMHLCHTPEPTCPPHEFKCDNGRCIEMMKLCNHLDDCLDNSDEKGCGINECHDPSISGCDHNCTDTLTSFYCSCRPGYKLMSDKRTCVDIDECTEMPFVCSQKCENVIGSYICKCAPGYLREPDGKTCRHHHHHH

T2: complex of vitamin D binding protein with 24,25-dihydroxyvitamin D (DBP-24,25VD) (human, UniProt P02774 17-474)
T2 construct: Same protein as m4; 50 nM NT-647-labelled DBP was mixed with 37.8 nM metabolite; also called DBP:24,25(OH)VD
T2 sequence (looked up): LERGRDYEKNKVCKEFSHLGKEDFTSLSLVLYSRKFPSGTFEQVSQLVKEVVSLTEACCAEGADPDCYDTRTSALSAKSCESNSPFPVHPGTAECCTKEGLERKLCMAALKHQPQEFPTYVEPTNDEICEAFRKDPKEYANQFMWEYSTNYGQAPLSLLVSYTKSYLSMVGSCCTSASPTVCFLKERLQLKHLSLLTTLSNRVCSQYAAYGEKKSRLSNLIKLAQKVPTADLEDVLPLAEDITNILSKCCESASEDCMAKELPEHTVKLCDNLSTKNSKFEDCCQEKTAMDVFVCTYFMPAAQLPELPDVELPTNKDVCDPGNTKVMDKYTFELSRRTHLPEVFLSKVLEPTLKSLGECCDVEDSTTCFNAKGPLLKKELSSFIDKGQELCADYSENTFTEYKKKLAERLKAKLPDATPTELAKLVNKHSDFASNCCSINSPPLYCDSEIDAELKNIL

T3: complex of vitamin D binding protein with 25-hydroxyvitamin D2 (DBP:25(OH)VD2) (human, UniProt P02774 17-474)
T3 construct: Same protein as m4; 50 nM NT-647-labelled DBP was mixed with 37.8 nM metabolite; also called DBP-VD2
T3 sequence (looked up): T2 sequence (looked up)

T4: complex of vitamin D binding protein with the 3C-epimer of 25(OH)D3 (human, UniProt P02774 17-474)
T4 construct: Same protein as m4, occupied by the epimer; also called DBP:3-epi-25(OH)D3
T4 sequence (looked up): T2 sequence (looked up)

B1: DBP-1,25(OH)VD3 complex (ligand)
chain: T2 sequence (looked up)
modifications: The protein carries the red fluorescent dye NT-647 (positions not stated). 1,25(OH)2 vitamin D3 is bound non-covalently and cannot be written in letters. It is a natural glycoprotein.
notes: also called DBP:1,25(OH)2D3
B2: vitamin D binding protein (DBP) alone, without added vitamin D metabolite (ligand, human, UniProt P02774 17-474, looked up)
chain: T2 sequence (looked up)
notes: also called apoprotein DBP; non-complexed DBP
B3: complex of vitamin D binding protein with 25-hydroxyvitamin D3 (DBP:25(OH)D3) (ligand, human, UniProt P02774 17-474, looked up)
chain: T2 sequence (looked up)
notes: Same protein as m4, occupied by the small molecule 25(OH)D3; Both are treated as this one entry; also called DBP:VD3; DBP/VD3
B4: Human RAP (ligand, UniProt P30533 35-357, looked up)
chain: YSREKNQPKPSPKRESGEEFRMEKLNQLWEKAQRLHLPPVRLAELHADLKIQERDELAWKKLKLDGLDEDGEKEARLIRNLNVILAKYGLDGKKDARQVTSNSLSGTQEDGLDDPRLEKLWHKAKTSGKFSGEELDKLWREFLHHKEKVHEYNVLLETLSRTEEIHENVISPSDLSDIKGSVLHSRHTELKEKLRSINQGLDRLRRVSHQGYSTEAEFEEPRVIDLWDLAQSANLTDKELEAFREELKHFEAKIEKHNHYQKQLEIAHEKLRHAESVGDGERVSRSREKHALLEGRTKELGYTVKKHLQDLSGRISRARHNEL
B5: soluble recombinant megalin M2 fragment (amino acids 1024-1429 of human LRP2/megalin, C-terminal 6x His tag) (receptor)
chain: EQCGLFSFPCKNGRCVPNYYLCDGVDDCHDNSDEQLCGTLNNTCSSSAFTCGHGECIPAHWRCDKRNDCVDGSDEHNCPTHAPASCLDTQYTCDNHQCISKNWVCDTDNDCGDGSDEKNCNSTETCQPSQFNCPNHRCIDLSFVCDGDKDCVDGSDEVGCVLNCTASQFKCASGDKCIGVTNRCDGVFDCSDNSDEAGCPTRPPGMCHSDEFQCQEDGICIPNFWECDGHPDCLYGSDEHNACVPKTCPSSYFHCDNGNCIHRAWLCDRDNDCGDMSDEKDCPTQPFRCPSWQWQCLGHNICVNLSVVCDGIFDCPNGTDESPLCNGNSCSDFNGGCTHECVQEPFGAKCLCPLGFLLANDSKTCEDIDECDILGSCSQHCYNMRGSFRCSCDTGYMLESDGRTCKHHHHHH
notes: Expressed in and secreted by HEK cells, with the signal peptide removed; It tends to dimerise and is the fragment most easily dissociated to monomer; also called E1024-K1429

The target in test [1] is B5. Put plainly: microscale thermophoresis; NT-647-labelled DBP mixed with 1,25(OH)VD3; purified megalin M2 titrated (set-up as in paragraph 103).
The target of test [2] is T1, soluble recombinant megalin M3 fragment …. Put plainly: co-immunoprecipitation with lysate of HEK cells expressing M3; pull-down with anti-His antibody beads; Western blot with anti-DBP antibody.
For test [3], the target named is B5. Put plainly: peptide array of megalin M2 region; major binding epitopes of megalin ligands.
The target of test [4] is B3. Put plainly: MST, NT-647-labelled DBP (50 nM) with VD3 (50 nM), megalin fragment titrated.
For test [5], the target named is Human C1q (human, UniProt P02745 23-245; P02746 28-253; P02747 29-245). As to the kind of experiment: peptide array of megalin M2 region; major binding epitopes of megalin ligands.
Test [6] deals with T5, Human Albumin-His-tag (human, UniProt P02768 25-609).
T5 construct: not shown: His-tag
The test is described as above.

Test [7] deals with T2, complex of vitamin D binding protein …. Put plainly: MST, NT-647-labelled DBP (50 nM) mixed with 24,25VD (37.8 nM), megalin M2 titrated.
Test [8] has as its target T3, complex of vitamin D binding protein …. As to the kind of experiment: MST, NT-647-labelled DBP (50 nM) mixed with 25(OH)VD2 (37.8 nM), megalin M2 titrated.
The target in test [9] is B3. Put plainly: MST, NT-647-labelled DBP (50 nM) mixed with 25(OH)VD3 (37.8 nM), megalin M2 titrated.
Test [10] has as its target T4, complex of vitamin D binding protein …. As to the kind of experiment: microscale thermophoresis; NT-647-labelled DBP (50 nM) mixed with the vitamin D metabolite (37.8 nM), here 3epi25(OH)VD3; purified megalin M2 titrated.
Test [11] has as its target B2. As to the kind of experiment: MST, NT-647-labelled DBP (50 nM), megalin fragment titrated, absence of 25-OH vitamin D3; microscale thermophoresis; NT-647-labelled DBP, purified soluble M2 titrated 0.488-1000 nmol/L; absence of 25-OH vitamin D3. In general terms: Microscale thermophoresis detects binding through changes in fluorescence in a small temperature gradient.

Sequence of Human C1q (P02745 23-245 limits assumed, chain 1 of 3): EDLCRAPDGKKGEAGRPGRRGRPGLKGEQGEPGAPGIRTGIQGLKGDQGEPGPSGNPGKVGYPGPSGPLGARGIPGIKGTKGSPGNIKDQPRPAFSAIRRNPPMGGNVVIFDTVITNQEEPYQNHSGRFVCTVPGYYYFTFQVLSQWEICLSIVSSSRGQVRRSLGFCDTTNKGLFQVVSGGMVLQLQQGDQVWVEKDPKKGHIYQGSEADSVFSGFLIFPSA
Sequence of Human C1q (P02746 28-253 limits assumed, chain 2 of 3): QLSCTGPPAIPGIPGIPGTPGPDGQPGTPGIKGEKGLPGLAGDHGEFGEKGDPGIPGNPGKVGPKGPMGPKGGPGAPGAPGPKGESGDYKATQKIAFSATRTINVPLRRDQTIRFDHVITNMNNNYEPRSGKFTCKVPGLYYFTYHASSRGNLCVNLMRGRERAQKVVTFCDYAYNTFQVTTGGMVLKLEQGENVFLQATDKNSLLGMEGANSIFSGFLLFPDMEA
Sequence of Human C1q (P02747 29-245 limits assumed, chain 3 of 3): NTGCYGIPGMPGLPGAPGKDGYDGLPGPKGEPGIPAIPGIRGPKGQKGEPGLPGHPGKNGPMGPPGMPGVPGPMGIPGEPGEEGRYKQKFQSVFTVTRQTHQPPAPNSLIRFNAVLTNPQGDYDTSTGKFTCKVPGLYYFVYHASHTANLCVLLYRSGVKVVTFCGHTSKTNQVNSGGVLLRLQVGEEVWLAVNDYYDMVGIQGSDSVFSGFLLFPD
T5 sequence (P02768 25-609 limits assumed): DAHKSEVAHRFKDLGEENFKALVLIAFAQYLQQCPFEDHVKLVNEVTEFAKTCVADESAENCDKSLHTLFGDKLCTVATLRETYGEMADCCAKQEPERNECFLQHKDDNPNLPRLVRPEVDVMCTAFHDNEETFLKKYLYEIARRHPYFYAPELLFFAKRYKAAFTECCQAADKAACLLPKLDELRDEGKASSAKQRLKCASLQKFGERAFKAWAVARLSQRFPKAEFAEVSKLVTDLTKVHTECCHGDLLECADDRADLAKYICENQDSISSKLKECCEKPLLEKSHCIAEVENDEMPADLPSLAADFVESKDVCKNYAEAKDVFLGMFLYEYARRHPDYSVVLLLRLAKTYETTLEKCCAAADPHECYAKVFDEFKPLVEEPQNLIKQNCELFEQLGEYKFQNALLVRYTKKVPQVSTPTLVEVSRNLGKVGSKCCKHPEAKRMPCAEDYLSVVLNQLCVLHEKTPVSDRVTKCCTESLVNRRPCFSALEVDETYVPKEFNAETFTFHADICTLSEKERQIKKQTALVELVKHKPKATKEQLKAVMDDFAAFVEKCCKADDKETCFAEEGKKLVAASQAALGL

As for B1, in test [1], the Kd (in general, the concentration at which binding is half-saturated) amounted to 18.1 nM.

In the case of B2, the binding result in test [2] is on record as “no binding (tested: DBP 0,5 µg)”.

As for B3, the binding result in [2] is listed as “no binding (tested: DBP 0,5 µg with VD3 0,2 µg)”.

With B4, the binding result in test [3] is “binds”.

B5: the Kd in test [4] came out at 23.7 nM; in test [7] it was 171 nM; in test [8], 160 nM; in test [9], 33.7 nM; in [10], 5.86 nM; in [11], 134 nM. Also, the binding result in [5] and in test [6] was “binds” throughout.

These data come from patent publication US20240319212A1 (IMMUNDIAGNOSTIK, published 2024).
